Consider 15 sequences from the supplement of paper PMC9170038.

The series relates to MS2 coat protein. Description: apparent KD of MS2 coat protein; higher = weaker reporter binding. The following applies: Eterna round: R107. A digest of the protocol:
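Designed RNA switches, transcribed on-chip from Illumina sequencing clusters, were titrated with SNAP-549-labelled MS2 coat protein from 0.7 or 1.5 nM to 3 µM in twofold steps. The solution was 100 mM Tris-HCl pH 7.5, 80 mM KCl, 4 mM MgCl2, with constant ligand or without it. Apparent KD is the median over each design's normalised cluster binding-curve fits.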

The mark [1] stands for this setting: input ligand: theophylline 20 uM.
[2] abbreviates: input ligand: theophylline 2 mM.
The mark [3] stands for this setting: input ligand: tryptophan 2.4 mM.

As for “CGAGUAAGAACAAUCGAAUAACGGUUUUCGCGAGGACCGGUACGGCCGCCACUCGUGUGAUAUAACACAUGAGGAUCACCCAUGU [3'end-1]”, the “apparent KD of MS2 coat protein” value (input ligand: arginine 13.2 mM) was 25.3 nM, the “apparent KD of MS2 coat protein” value under setting [1] came to 37.6 nM and the “apparent KD of MS2 coat protein” value under setting [2] was 34.9 nM.

Regarding “CGAGUCCGCUGAUGGGCUAAGUCAGGUGAUACCAGCCACUCCCGCGGCCCUUGGCAGCACAUGAGGAUCACCCAUGUAGGGCUUG [Iserbele]”, the “apparent KD of MS2 coat protein” value runs as follows: (input ligand: arginine 13.2 mM) 19.2 nM; under setting [1], 51.1 nM; under setting [3], 23.1 nM.

For the sequence “CGAGUUCGCUGAUGGGCUACGUCAGGUGAUACCAGCCACUCCCGCGGCCCUUGGCAGCACAUGAGGAUCACCCAUGUAGAGCUUG [Esinve]”, the “apparent KD of MS2 coat protein” value runs as follows: (input ligand: arginine 13.2 mM) 12.2 nM; under setting [1], 28.6 nM; under setting [3], 15 nM.

With “CGAUUUAAGACGGCCGCCACUAUUAAGUAACAAAAUAAACAUGAGGAUCACCCAUGUACAUGGGAUAGGACCGGGUCCAAUAUCG [A2]”, the “apparent KD of MS2 coat protein” value runs as follows: (input ligand: arginine 13.2 mM) 34.8 nM; under setting [1], 79.7 nM; under setting [2], 84.4 nM.

On to “CGCAACCCACAUGAGGAUCACCCAUGUGAAGGAGCGCCGAAUAAGGCAGGUAGGUCGCGCAUGAAUAAAUCAUGUAGGAAGCGAA [XArg-A 6 V1&2]”, for which the “apparent KD of MS2 coat protein” value by setting is: (input ligand: arginine 13.2 mM) 20.6 nM; (input ligand: none) 32.2 nM; under setting [1], 32.6 nM; under setting [2], 33.4 nM; under setting [3], 29.1 nM.

With “CGCAACCCACAUGAGGAUCACCCAUGUGAAGGAGCGGCGAAUAAGCCAGGUAGGUCGCGCAUGAAUAAAUCAUGUAGGAAGCGAA [XArg-A 7 V1&2]”, the “apparent KD of MS2 coat protein” value reads like this: (input ligand: arginine 13.2 mM) 18 nM; (input ligand: none) 20.1 nM; under setting [1], 27.8 nM; under setting [2], 28 nM; under setting [3], 22.5 nM.

For “CGCCACUCGAGUGAUCCUCACGAGUGGCUACGAGGACCGGUACGGCCGCCACUCGAAUUAACAUGAGGAUCACCCAUGUACUCCA [Brourdmod10]”, the “apparent KD of MS2 coat protein” value was 17.4 nM (input ligand: arginine 13.2 mM), 173 nM under setting [1] and 193 nM under setting [2].

For “CGGACAUGAGGAUCACCCAUGUACACUGAAGGAGCGUCGAGAACGACAGGUAGGUCGCAGGUUGAGGAAGGUGAUGCUCAAGAAG [Exclusion Arginine A GF4]”, the “apparent KD of MS2 coat protein” value turned out to be 25.1 nM (input ligand: arginine 13.2 mM); 44.7 nM (input ligand: none); 71.9 nM under setting [1]; 57.4 nM under setting [2]; 50.6 nM under setting [3].

On to “CGGCCCUCACACGAGGAUCACCCGUGUGAUACCAGCCUGGAAACAGGCCCUUGGCAGCACAAGGUCAUCAAAGAUGACCAAGCCG [TheoAX 22 #SwitchBubble]”, for which the “apparent KD of MS2 coat protein” value (input ligand: arginine 13.2 mM) turned out to be 9.52 nM; the “apparent KD of MS2 coat protein” value (input ligand: none) turned out to be 11.9 nM; the “apparent KD of MS2 coat protein” value under setting [1] was 18 nM; the “apparent KD of MS2 coat protein” value under setting [2] came out at 31.8 nM; the “apparent KD of MS2 coat protein” value under setting [3] is 12.6 nM.

In the case of “CGGCCCUCACCUGAGGAACACCCAGGUGAUACCAGCCUGGAAACAGGCCCUUGGCAGCACCAGGUCAUCAAAGAUGACCAAGCCG [TheoAX 24 #SwitchBubble #AlternativeMS2]”, the “apparent KD of MS2 coat protein” value came to 20.8 nM (input ligand: arginine 13.2 mM); 20.1 nM (input ligand: none); 28.7 nM under setting [1]; 171 nM under setting [2]; 19.2 nM under setting [3].

Regarding “CGGCCCUCACUUGAGGAUCACCCAAGUGAUACCAGCCUGGAAACAGGCCCUUGGCAGCACUAGGUCAUCAAAGAUGACCAAGCCG [TheoAX 28 #OpenEnded #AlternativeMS2]”, the “apparent KD of MS2 coat protein” value is, setting by setting: (input ligand: arginine 13.2 mM) 14.8 nM; (input ligand: none) 12.8 nM; under setting [1], 26 nM; under setting [2], 146 nM; under setting [3], 13.4 nM.

As for “CGGCUCAUAAUGGAUACCAGUCCAGCAUAGAAACCUUGACACAUGAGGAUCACCCAUGUUGACCCUUGGCAGCCAUUGAUCAUAC [theeternabot_exclusion_MS2_Theo_B_28]”, the “apparent KD of MS2 coat protein” value stood at 23.1 nM (input ligand: arginine 13.2 mM), 36.5 nM under setting [1] and 21.7 nM under setting [3].

As for “CGGGUUCGGGCGGCCGCCACUUUGAUUGGGUGUGACAUGAGGAUCACCCAUGUUGUGGGUGAUCGGAGGACCGGGUUUGGGCUUG [Fidorka]”, the “apparent KD of MS2 coat protein” value runs as follows: (input ligand: arginine 13.2 mM) 85.2 nM; (input ligand: none) 65.6 nM; under setting [1], 471 nM; under setting [2], 744 nM; under setting [3], 240 nM.

For the sequence “CGGGUUGGACCAGGAAAUGGUCUGACGCGCCGAGGACCGGUACGGCCGCCACUCGCGGGUACAUGAGGAUCACCCAUGUCGGUGG [#1 Same State - Tryptophan A Attempt #12 (HarryS)]”, the “apparent KD of MS2 coat protein” value by setting is: (input ligand: arginine 13.2 mM) 58.2 nM; (input ligand: none) 50.4 nM; under setting [1], 69.3 nM; under setting [2], 61.7 nM; under setting [3], 93 nM.

Take “CGGUUUGUGAUGGAUACCAGCAGUGUGGCUGUUUAUCCUGACAUGAGGAUCACCCAUGUGUGCCCUUGGCAGCUGUUGUGGGCUG [8.aC]”: the “apparent KD of MS2 coat protein” value worked out at 64.1 nM (input ligand: arginine 13.2 mM), 105 nM under setting [1] and 77 nM under setting [3].
